Our source for the Kd values is patent publication US20220242973A1 (Molecular Partners, published 2022).

Like-named read-outs stand apart in the source and are kept apart here.

The target of assay [1] is T1, Recombinant human FAP (fibroblast activation protein) (human, UniProt Q12884 26-760).
T1 construct: Bought soluble recombinant protein; Chemically biotinylated for the HTRF screen; also called hFAP; biotinylated human FAP
T1 sequence (looked up): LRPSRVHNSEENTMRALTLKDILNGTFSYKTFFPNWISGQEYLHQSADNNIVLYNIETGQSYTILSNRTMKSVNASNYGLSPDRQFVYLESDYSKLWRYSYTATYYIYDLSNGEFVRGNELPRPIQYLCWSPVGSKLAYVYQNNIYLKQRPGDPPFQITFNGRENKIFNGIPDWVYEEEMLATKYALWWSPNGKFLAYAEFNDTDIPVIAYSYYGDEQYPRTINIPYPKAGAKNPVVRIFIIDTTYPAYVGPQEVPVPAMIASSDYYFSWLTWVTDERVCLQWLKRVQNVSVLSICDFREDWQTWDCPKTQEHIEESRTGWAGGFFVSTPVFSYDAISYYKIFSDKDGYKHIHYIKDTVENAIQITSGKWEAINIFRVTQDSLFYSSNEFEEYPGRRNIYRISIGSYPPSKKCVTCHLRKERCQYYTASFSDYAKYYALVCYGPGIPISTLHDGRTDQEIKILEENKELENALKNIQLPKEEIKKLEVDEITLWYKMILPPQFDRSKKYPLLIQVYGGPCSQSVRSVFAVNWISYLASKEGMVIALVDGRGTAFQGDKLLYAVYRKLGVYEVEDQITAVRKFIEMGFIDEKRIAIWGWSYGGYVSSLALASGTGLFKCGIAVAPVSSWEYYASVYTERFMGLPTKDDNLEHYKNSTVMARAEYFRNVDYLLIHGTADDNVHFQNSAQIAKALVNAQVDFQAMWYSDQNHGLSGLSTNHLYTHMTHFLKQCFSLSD
The assay is described as follows: SPR (ProteOn), human FAP immobilized on GLC chip. On the procedure: (§1) Briefly, human FAP was diluted in 10 mM Na-acetate pH 5.3 buffer and covalently immobilized on a GLC chip (BioRad) to a level of around 2000 resonance units (RU). The interaction of ankyrin repeat protein and hFAP was then measured by injecting 200 μl running buffer (PBS, pH 7.4 containing 0.005% Tween 20®) containing serial dilutions of ankyrin repeat proteins covering a concentration range between 30 nM and 0.5 nM (on-rate measurement), followed by a running buffer flow for at least 25 minutes at a constant flow rate of 100 μl/min (off-rate measurement). The regeneration was performed using 15 μl of 10 mM Glycine pH 2 followed by 15 μl of 124 mM H₃PO₄. The signals (i.e. resonance unit (RU) values) of the interspots and a reference injection (i.e. injection of running buffer only) were subtracted from the RU traces obtained after injection of ankyrin repeat protein (double-referencing). Based on the SPR traces obtained from the on-rate and off-rate measurements, the on- and off-rate of the corresponding ankyrin repeat protein—FAP interaction was determined.
(§2) Dissociation constants (KD) were calculated from the estimated on- and off-rates using standard procedures known to the person skilled in the art. […] Table 4 provides the KD values on cFAP and hFAP of some of the selected ankyrin repeat proteins as examples.

The target in assay [2] is T2, Histidine-tagged cynomolgus FAP (cynomolgus monkey (Macaca fascicularis), UniProt Q12884 30-760 (human entry)).
T2 construct: the tie between the two is by these matching words only; also called cFAP; cyno FAP
T2 sequence: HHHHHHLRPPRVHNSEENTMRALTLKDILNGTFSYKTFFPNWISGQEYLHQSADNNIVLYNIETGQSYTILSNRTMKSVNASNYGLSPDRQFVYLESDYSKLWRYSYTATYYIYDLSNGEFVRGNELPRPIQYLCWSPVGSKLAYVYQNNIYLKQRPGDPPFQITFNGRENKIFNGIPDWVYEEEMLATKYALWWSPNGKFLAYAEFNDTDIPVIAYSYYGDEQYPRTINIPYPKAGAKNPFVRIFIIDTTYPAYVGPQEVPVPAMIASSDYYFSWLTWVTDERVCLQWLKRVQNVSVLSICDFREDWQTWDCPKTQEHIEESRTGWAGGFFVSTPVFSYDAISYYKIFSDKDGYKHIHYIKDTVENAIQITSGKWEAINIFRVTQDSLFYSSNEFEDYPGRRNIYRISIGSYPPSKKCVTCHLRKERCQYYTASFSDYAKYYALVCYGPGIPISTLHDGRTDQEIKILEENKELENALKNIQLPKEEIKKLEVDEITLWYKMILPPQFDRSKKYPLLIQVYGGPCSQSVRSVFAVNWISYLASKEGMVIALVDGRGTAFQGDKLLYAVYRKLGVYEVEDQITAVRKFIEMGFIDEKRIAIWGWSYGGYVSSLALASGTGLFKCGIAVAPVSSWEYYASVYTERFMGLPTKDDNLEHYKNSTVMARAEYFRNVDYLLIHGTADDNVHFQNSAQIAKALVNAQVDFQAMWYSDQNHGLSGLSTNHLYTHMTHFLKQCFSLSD
Kind of assay: SPR (ProteOn), cynomolgus FAP immobilized on GLC chip. As for the experimental part: as §1, with “cyno” for “human”, “pH5.3” for “pH 5.3”, “cFAP” for “hFAP”, “25” for “30”, “0.3” for “0.5”
as §2

The target of assay [3] is T1, Recombinant human FAP (fibroblast …). The assay is described as follows: SPR (ProteOn), human FAP immobilized on GLC chip. In a few lines: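 Human FAP amine-coupled (pH 5.3 acetate) to about 2000 RU. Ankyrin repeat proteins injected at 0.5–30 nM in PBS pH 7.4 with 0.005% Tween 20 at 100 μl/min, then ≥25 min dissociation, with double referencing. KD calculated from the fitted on- and off-rates.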
This is another data set of the same source.

B1: DARPin® protein #38 (designed binder)
chain: MRGSHHHHHHGSDLGKKLLEAARAGQDDEVRELLKAGADVNAKDEVGRTPLHLAAQIGHLEIVEVLLKAGADVNAKNRWGVTPLHVAAWVGHLEIVEVLLKAGADVNAKDQQGATPLHLAAIRGHLEIVEVLLKAGADVNAQDKSGKTPADLAADAGHEDIAEVLQKLN
A word on the Kd: it is the free concentration of one partner at which half of the binding sites on the other are occupied at equilibrium, for simple one-to-one binding. For B1, the results for the Kd in assay [1], in assay [2] and in assay [3] were 0.058 nM, 0.047 nM and 0.058 nM, respectively.

B2: DARPin® protein #34 (designed binder)
chain: MRGSHHHHHHGSDLGKKLLEAARAGQDDEVRELLKAGADVNAKDVLGWTPLHLAAFEGHLEIVEVLLKAGADVNAKDKKGWTPLQLAARTGHLEIVEVLLKAGADVNAKDHIGATPLHLAAWQGHPEIVEVLLKAGADVNAQDKSGKTPADLAADAGHEDIAEVLQKAA
In the case of B2, the Kd was found to be 0.177 nM in assay [1], 0.071 nM in assay [2] and 0.177 nM in assay [3].

B3: DARPin® protein #36 (designed binder)
chain: MRGSHHHHHHGSDLGKKLLEAARAGQDDEVRILLAAGADVNAKDVLGWTPLHLAAFEGHLEIVEVLLKAGADVNAKDKKGWTPLQLAARTGHLEIVEVLLKAGADVNAKDHIGATPLHLAAWQGHPEIVEVLLKAGADVNAQDKSGKTPADLAADAGHEDIAEVLQKLN
B3: the Kd was 0.118 nM in assay [1], 0.101 nM in assay [2] and 0.118 nM in assay [3].

B4: DARPin® protein #39 (designed binder)
chain: MRGSHHHHHHGSDLGKKLLEAARAGQDDEVRELLKAGADVNAKDEWGKTPLHLAAIRGHLEIVEVLLKAGADVNAKDTHGITPLHLAAFVGHLEIVEVLLKAGADVNAKDYLGRTPLHIAAAKGHLEIVEVLLKAGADVNAQDKSGKTPADLAADAGHEDIVEVLQKLN
In the case of B4, the Kd is 0.22 nM in assay [1], 0.155 nM in assay [2] and 0.22 nM in assay [3].

B5: DARPin® protein #35 (designed binder)
chain: MRGSHHHHHHGSDLGEKLLVAALYGQDDEVRELLKAGADVNAKDQWGLTPLHKAALQGHLEIVEVLLKAGADVNAKDERGHTPLHWAARFGHLEIVEVLLKAGADVNAQDQKGYTPADLAALWGHEDIAEVLQKAA
Take B5: the Kd is 0.21 nM in assay [1], 0.15 nM in assay [2] and 0.21 nM in assay [3].

B6: DARPin® protein #37 (designed binder)
chain: MRGSHHHHHHGSDLGEKLLVAALYGQDDEVRILLAAGADVNAKDQWGLTPLHKAALQGHLEIVEVLLKAGADVNAKDERGHTPLHWAARFGHLEIVEVLLKAGADVNAQDQKGYTPADLAALWGHEDIAEVLQKLN
Turning to B6, the Kd worked out at 0.14 nM in assay [1], 0.112 nM in assay [2] and 0.14 nM in assay [3].
